We go through 2 molecules from publication PMC11662665, “Phosphorylation-mediated disassembly of C-terminal binding protein 2 tetramer impedes epigenetic silencing of pluripotency in mouse embryonic stem cells” (Nucleic Acids Research, 2024).

Data set [1] concerns the molecule itself. The data set is described as follows: pull-down; 1 ug GST-tagged and 1 ug His6-tagged recombinant Ctbp2, pulled down with GSH beads; 25 mM Tris-Cl pH 7.5, 0.1% NP-40, 150 mM NaCl, NADH, BSA, 10% glycerol, 4 C; for the phosphorylated form after in vitro phosphorylation with HA-Chk2.
Data set [2] concerns the target T1, GST-CTBP2 (UniProt P56546 1-445).
T1 construct: also called GST-tagged Ctbp2; source: E. coli BL21 DE3 pLysS, purified (glutathione Sepharose 4B)
Briefly: pull-down; recombinant truncated FLAG-Suz12 and GST-CTBP2 incubated in vitro; pull down with glutathione Sepharose. As to conditions: both partners purified.

T1 sequence (P56546 whole entry): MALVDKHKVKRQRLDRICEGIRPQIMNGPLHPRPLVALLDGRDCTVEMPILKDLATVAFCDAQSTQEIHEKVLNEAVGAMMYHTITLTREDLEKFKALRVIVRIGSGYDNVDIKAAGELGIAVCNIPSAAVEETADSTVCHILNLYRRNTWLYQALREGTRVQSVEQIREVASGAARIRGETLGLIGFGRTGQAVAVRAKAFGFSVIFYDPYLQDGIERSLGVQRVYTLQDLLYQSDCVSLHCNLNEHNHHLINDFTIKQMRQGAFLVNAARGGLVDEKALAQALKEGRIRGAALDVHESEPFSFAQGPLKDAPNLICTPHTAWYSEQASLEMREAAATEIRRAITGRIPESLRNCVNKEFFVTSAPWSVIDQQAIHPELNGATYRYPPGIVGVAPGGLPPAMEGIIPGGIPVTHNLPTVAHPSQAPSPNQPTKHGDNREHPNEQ

B1: GST- or His6-tagged recombinant CTBP2, wild type (the two copies of the in vitro self-binding assay) (natural protein)
chain: not shown
notes: Two differently tagged copies of one protein; each copy carries one tag; The same constructs stand singly as m31 (His6) and m33 (GST); also called recombinant wild-type Ctbp2; source: E. coli BL21 DE3 pLysS, purified (glutathione Sepharose 4B or Ni-NTA agarose)
In the case of B1, in data set [1], the binding result is on record as “binds”.

B2: FLAG-Suz12 1–138 (recombinant truncated Suz12, N-terminal region) (domain or fragment, human, UniProt Q15022 1-138, looked up)
chain: MAPQKHGGGGGGGSGPSAGSGGGGFGGSAAVAAATASGGKSGGGSCGGGGSYSASSSSSAAAAAGAAVLPVKKPKMEHVQADHELFLQAFEKPTQIYRFLRTRNLIAPIFLHRTLTYMSHRNSRTNIKRKTFKVDDML
notes: the methods call the cloned PRC2 components human
B2: in data set [2], the binding result is given as “binds”.
